One block for each substance: values may come before it.
Molecular target: B-domain-deleted human coagulation factor VIII (human) (UniProt P00451)
Experiment: cell-based or functional assay

Sequence of UniProt P00451 (P00451 other isoform, or with tags, fused parts or gaps limits assumed): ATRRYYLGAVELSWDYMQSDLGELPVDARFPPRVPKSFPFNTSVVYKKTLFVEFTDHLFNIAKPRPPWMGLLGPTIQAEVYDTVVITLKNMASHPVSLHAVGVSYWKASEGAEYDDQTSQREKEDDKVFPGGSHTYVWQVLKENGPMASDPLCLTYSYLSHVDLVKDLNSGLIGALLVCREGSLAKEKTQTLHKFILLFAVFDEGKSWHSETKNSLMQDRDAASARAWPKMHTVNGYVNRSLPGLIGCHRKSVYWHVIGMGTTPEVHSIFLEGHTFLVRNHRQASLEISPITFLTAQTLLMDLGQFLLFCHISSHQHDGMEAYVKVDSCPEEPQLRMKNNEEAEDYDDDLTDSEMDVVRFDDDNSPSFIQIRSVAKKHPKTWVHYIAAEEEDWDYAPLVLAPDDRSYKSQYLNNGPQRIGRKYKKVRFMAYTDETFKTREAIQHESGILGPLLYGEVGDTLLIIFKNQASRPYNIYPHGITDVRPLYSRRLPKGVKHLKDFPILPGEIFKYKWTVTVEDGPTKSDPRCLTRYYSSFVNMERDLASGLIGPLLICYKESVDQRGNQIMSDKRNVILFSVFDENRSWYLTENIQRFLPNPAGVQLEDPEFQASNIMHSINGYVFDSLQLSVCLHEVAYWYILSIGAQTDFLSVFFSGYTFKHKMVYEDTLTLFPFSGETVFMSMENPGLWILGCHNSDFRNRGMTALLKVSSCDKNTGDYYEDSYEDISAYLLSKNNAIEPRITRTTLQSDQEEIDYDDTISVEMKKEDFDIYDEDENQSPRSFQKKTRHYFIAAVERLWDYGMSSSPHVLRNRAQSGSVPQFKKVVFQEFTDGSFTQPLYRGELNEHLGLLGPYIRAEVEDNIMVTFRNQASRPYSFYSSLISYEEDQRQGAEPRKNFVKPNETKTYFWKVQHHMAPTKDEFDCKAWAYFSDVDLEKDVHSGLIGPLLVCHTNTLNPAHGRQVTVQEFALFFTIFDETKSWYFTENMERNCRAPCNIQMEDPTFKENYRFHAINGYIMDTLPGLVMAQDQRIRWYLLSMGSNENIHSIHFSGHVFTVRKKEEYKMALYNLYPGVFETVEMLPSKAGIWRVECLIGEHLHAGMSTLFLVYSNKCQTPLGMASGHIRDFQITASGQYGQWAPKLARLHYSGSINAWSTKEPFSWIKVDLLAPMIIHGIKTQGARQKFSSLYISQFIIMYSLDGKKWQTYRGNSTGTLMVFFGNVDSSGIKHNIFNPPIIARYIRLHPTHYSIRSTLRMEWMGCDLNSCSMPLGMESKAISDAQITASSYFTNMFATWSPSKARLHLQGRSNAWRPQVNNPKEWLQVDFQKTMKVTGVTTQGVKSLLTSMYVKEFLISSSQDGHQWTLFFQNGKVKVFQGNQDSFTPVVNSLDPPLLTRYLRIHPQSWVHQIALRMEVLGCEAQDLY

FVIII activity (chromogenic assay) in supernatant of 293T cells co-transfected with pREP7-BDD.FVIII and pRex52: 199
FVIII activity in supernatant of K562 cells co-transduced with vBDD.FVIII and vEx52 at a MOI of 1.5: 28.3
Substance: full length von Willebrand factor (vWF) (from UniProt P04275 23-2813)

FVIII activity (chromogenic assay) in supernatant of 293T cells co-transfected with pREP7-BDD.FVIII and pRex23: 28.9
FVIII activity in supernatant of K562 cells co-transduced with vBDD.FVIII and vEx23 at a MOI of 1.5: 33.9
Substance: mutant von Willebrand factor vWF23 (exons 24-46 of vWF deleted) (from UniProt P04275 23-2813)

FVIII activity (chromogenic assay) in supernatant of 293T cells co-transfected with pREP7-BDD.FVIII and pRex28: 107
FVIII activity in supernatant of K562 cells co-transduced with vBDD.FVIII and vEx28 at a MOI of 1.5: 53.3
Substance: mutant von Willebrand factor vWF28 (exons 29-46 of vWF deleted) (from UniProt P04275 23-2813)

Source: US20100183556A1
